From the domain aggregation screens of Martell et al. (2025)

Experiment: soluble fraction after stress (log2 fold change); higher = more stays soluble; pooled small domains, quantitative proteomics
Details: stress: 75 degC
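Further: 20 min heating vs room temperature control held 20 min.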

Sequence	soluble fraction (log2)
HMSDSISLTLNGDLRRFRAHATIADLVRDIGLDPVKVAVERNLEIVSRSTLEDVVLADGDRLEIVHFV	-2.23
HMSDSLVLTGVAYVDGKPVVTLFDKVKKESLVVTDQPNLKGWTLVEATQSSDIKRATAKVNIGGEPVSIRY	-0.0165
HMSDTFENILQRLIKATGRKNASEMANALGLSPQSVYSAKTKGKIPPAWIFAAAERFNASADWIYFGY	-1.5
HMSDTSAIEKIIDEVLSDESSQKAINDIKNGNEKVYGFLVGQVMKKSQGKANPGLVQKMLREKIAK	0.116
HMSDYKSALQEAVQTNKQSIEYVLIKESGPAHNKTFTFEVRIDNISYGVGTAKSKKEAEQIAAKDALDKLV	-0.0877
HMSDYVLLYSGLNTSDTTFLAYSFQEKGIRYKMPNPDEIEVRVQDVDQARRIAAGAQLGGQVS	-0.536
HMSEEGTIPDVSGQDEASAQKALENAGFTNIKSEAVYSEEEQGTVIDTNPTAGTKVSKDTEITMQVSKGSE	0.248
HMSEEKLVFSIPDDIETMRIDKAIALETHLSRAQIAELFKENKILLNSKNSKRSEKVKPGDKISLEFIPKI	-0.0442
HMSEEVKSQPISILDLSTRASNGLKNEGIETIGELVKYSEDELLGLDKFGQNSLKEIKKKLEEIGLTLKEH	0.00703
HMSEFLTIVRAVYSGLSRRKVAAMHKVSRNTVSLYLRQARDQGWLTLEDLEKLDDLTVSQGVS	-2.08
HMSEFVIPLAKYNKALYTQVSLGMRFRMLFETEDSGVRRYMGTITGIGDLDPIRWKNSHWRNLQV	0.191
HMSEHLTLVVSDEDAGHRVDQFLVSRLAHMTRSQIQKLIKDGQVTIDTKLVRASTTVHTDNIVTIEFPPAV	-1.21
HMSEKLTLEAANEAAGMRIDKWLAMQLPELSRSRIEALISGGGVVVNGKNPSKSLKLKGGEQIELEIPE	-0.0607
HMSELLIVGSEQDNTRLDRFLADQYEEYTRSFLQKLIDQGNVSINGISVKKSGIKLKENDEIAVTLPEPQ	0.646
HMSELPLTQKVAIVMVALGEEASGEVMKHLSDYEIEEITQAIAGLKNISVELMDQILEEYEQHLIAG	-0.515
HMSELTKEIGKRIHDFRKSRGLNQEELARLIYKSKATLSKYEKGEIAIDLDTLKQLALALHVRMEQLLPPT	-1.5
HMSENDTILAKFVSVMGNKNLELVIFPDIAYLKGQVSNPEDKTKAETVAQSLLGGKPLVSLIEFE	-0.332
HMSENIQLQKEQLYQLIAQLPEQRQKIFRLHKIDNYSYQEISDFTGLSRKTIANHIYLAHQFILKKVKK	-3.76
HMSENKIMEIVQDLAREKSVILISHRLANVTAADKILYMEQGKIAESGTHEQLMAQNKAYAALFNKQQEL	-0.0206

Sequence	soluble fraction (log2)
HMSENLESEFFGIVVITQTLLQKELRDKPMTVELIRKTVEDVMSKHYSDSSVDKAKVEEELIRRFSTW	-1.32
HMSENMSQDLAQWYRLQQALHPNLDAPELWATDLTSQQRTVRDQLIQQWAQEKRDSLWSEISGD	-0.0639
HMSEPFDMAVPLTSGGRRLDQVLAELLPQHSRNRLQGWIRDGLLTLDGVTVTEPKRKLAGGEQLALLLP	-0.169
HMSEPTLESLRAEGAHHYDPARFHYLEVLARRMPGQHAAVQQVLASRLREAVAAYAGRRSLI	-0.157
HMSEQSEALRTGLDQLPINQRTALTLFHLHELNQSEVAKIMNISVGAVESLLFRGRQKMKQLLTSD	-1.39
HMSERIITFGEATREAMLEEMRADERVFVYGEDIAKQGGIFGQFAGMKDEFPERVLDTPISETALVGAG	0.157
HMSERVVVPDLTGKDLVAAQSELREISLAGREEGPGDKVRRQFPVAGVKVPKDTVVILYTED	0.0278
HMSESAGKALDILFYLARVEDEVSLARLSKETGMNKATALRYLAVLESWGVVEKRPSGWSLGLSLFELGSK	-2.05
HMSESGTFRAEAADAGRRLDVALAERLRLSRAAAQRLIAAGLVLVEGSPARKRQILHAGETVAWRAAPP	-1.03
HMSESLLTAAGFKTIAATTPEQKRHLEWLHPDQVTAVQLTGQHYYVYPDVAKSQLFVGTPKEYQAYLALRT	-0.16
HMSESLRDLVLSLIPEDGSTIGNRALITRLREDLPDLTDEDYHEVRDQLIAEGVLAKGRGQGGSVARANG	0.311
HMSETIVFGQQKAINTLSSEAGLSSAELNNYLKKRYQRPLFQLTVSEGADLIQGFQDGTLTKASITQYVSQ	-0.0878
HMSETQDQTTIEIEDMITVGTLAERLSIPVSTLIGELMKNGVMATVNEKIDFDTAQIIVGELKLPIELSKK	0.0487
HMSEYEYALHEFGITKKQSQRIFDRLSIADLEERINAIQTTLKQRSDIDNPAAYAWTVLNAE	-0.0603
HMSEYLDIHMAMEKLNRKEQLFVHLRFYEGLTQSEIAQRLFTSQVQISRLEKSVLEKMRQILSK	-2.2
HMSEYTRGELVSSLEAGEVAAVSIRPNRETPTGEAQIVLSDGQHRVLYVTDVREIEELVSSYGLNPQVEK	0.196
HMSFDNIKVGYISETAGYVKGISLADANEYAKLNPDTEFIFIDGDEKVRFLTINEVNGLTPKNLLRSDP	0.229
HMSFGFFELKSSDTDKLFAYLNNNEHFGNIKEENGLVTAFLTSELDAQTLNKLLFDNGIIASHLVKRK	-0.928
HMSFMPDPSIHDAITYTVRSGDYLGKISTTFGVKVSDLQKWNSIKSNIIYPGQKLTVWVSSNKRESLQ	-1.71
